Results published in patent US20200164071A1 (GENSUN BIOPHARMA, published 2020).
Blank lines part the entries; values can stand above or below the binder they belong to.

Tests used:
[1] = target: T1, human PD-1 on CHO-K1 cells (human, UniProt Q15116 25-288); experiment: flow cytometry blocking assay: FITC human PD-L1-Fc on human PD-1 CHO-K1 cells (Example 11)
T1 construct: also called Human PD-1 transfected CHO-K1 cells
Procedure: (§1) Human or Cyno PD-1 transfected CHO-K1 cells were washed with FACS buffer (0.5% BSA 2 mM EDTA in PBS) and re-suspended at a concentration of 10⁶ cells/ml. […] The cells were then washed and re-suspended in 30 μl 7 AAD solution; 35 μl 10% neutral buffered formalin solution was then added and incubated for 15 mins. before analysis using the iQue intellicyt system.

[2] = target: T1, human PD-1 on CHO-K1 cells; experiment: flow cytometry blocking assay: FITC human PD-L1-Fc on human PD-1 CHO-K1 cells (Examples 11 and 16); title: Blocking PD-L1 binding to PD-1
Procedure: as §1

[3] = target: T1, human PD-1 on CHO-K1 cells; experiment: flow cytometry blocking assay: FITC human PD-L1-Fc on human PD-1 CHO-K1 cells (Examples 11 and 15); title: PD-1 Blocking Activity Screening
Procedure: as §1

[4] = target: T2, His tagged human PD-1 protein (human, UniProt Q15116 25-170, limits assumed); experiment: bio-layer interferometry (Octet RED96), antibody on anti-human IgG capture biosensors, His tagged human PD-1 as analyte, 1:1 global fit (Example 12)
T2 construct: also called huPD-1-His; not shown: His tag
Procedure: […] was carried out using the Octet RED96 system (ForteBio Octet RED96 System) to characterize the binding kinetics of antibodies against His tagged human PD-1 protein. 20 nM of antibody was loaded onto the anti-human IgG capture biosensors. Association of analyte (His tagged human PD-1 protein) was observed by placing the biosensors in wells containing 2 or 3 fold serial dilution of analytes (72 nM being the highest concentration) for 5 mins. Dissociation was measured after transfer of the biosensors into kinetic buffer alone and monitoring of the interferometry signal for 10 minutes. The observed on and off rates (Ka and Kd) were fit using a 1:1 binding global fit model comprising at least 5 concentrations tested, and the equilibrium binding constant KD was then calculated.

[5] = target: T3, human TIGIT (antigen of Table 3) (human, UniProt Q495A1 23-141, limits assumed); experiment: binding kinetics, method not described (Table 3, Binding Affinity)
T3 construct: neither the method nor the antigen construct is described; limits and tags unknown; also called hu TIGIT
T3 sequence: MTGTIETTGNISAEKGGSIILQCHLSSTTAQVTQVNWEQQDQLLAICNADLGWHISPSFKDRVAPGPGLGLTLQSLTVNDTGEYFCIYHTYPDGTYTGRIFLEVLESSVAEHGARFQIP

[6] = target: T4, cyno TIGIT on CHO-K1 cells (cyno, UniProt A0A7N9I9V4 89-312); experiment: flow cytometry, CHO-K1 cells expressing cyno TIGIT (binding assay of Example 5)
T4 construct: whole, on cells; also called cyno-hu TIGIT
Procedure: (§2) The mixtures were incubated at 4 C for 20 min and washed 3 times. The mixtures were stained with the secondary antibody, PE labeled F(ab′)2-Goat anti-human IgG Fc (Thermo H10104) at 4° C. for 20 min. Cells were washed and resuspended in 7AAD solution and fixed in 10% neutral buffered formalin solution for 15 minutes before analysis with the iQue Intellicyt system.

[7] = target: T5, human TIGIT on CHO-K1 cells (human, UniProt Q495A1 23-244); experiment: flow cytometry, CHO-K1 cells expressing human TIGIT (binding assay of Example 5)
T5 construct: also called hu TIGIT; TIGIT+CHO-K1 cells
T5 sequence: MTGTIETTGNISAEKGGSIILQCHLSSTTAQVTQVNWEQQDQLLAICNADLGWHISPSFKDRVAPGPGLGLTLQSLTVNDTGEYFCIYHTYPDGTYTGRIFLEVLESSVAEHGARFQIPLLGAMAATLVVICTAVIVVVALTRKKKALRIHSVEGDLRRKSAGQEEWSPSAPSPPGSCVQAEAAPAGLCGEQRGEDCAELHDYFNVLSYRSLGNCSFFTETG
Procedure: as §2

[8] = target: T5, human TIGIT on CHO-K1 cells; experiment: flow cytometry competition with biotinylated hPVR-mIg on CHO-K1 cells expressing human TIGIT
Procedure: (§3) The cells were washed 2 times before staining with PE streptavidin (BioLegend) for 20 min at 4 C. The cells were then washed, resuspended in 30 μl 7 AAD solution, and 35 μl of 10% neutral buffered formalin solution was added. The cells were then incubated for 15 min. Flow cytometry was performed and IC50 was calculated using iQue intellicyt system.

[9] = target: T4, cyno TIGIT on CHO-K1 cells; experiment: flow cytometry blocking assay of Example 4: biotinylated hPVR-mIg on cyno TIGIT CHO-K1 cells
[10] = target: T5, human TIGIT on CHO-K1 cells; experiment: flow cytometry blocking assay of Example 4: biotinylated hPVR-mIg on human TIGIT CHO-K1 cells
[11] = target: T5, human TIGIT on CHO-K1 cells; experiment: flow cytometry, CHO-K1 cells expressing full-length human TIGIT, PE F(ab')2 goat anti-human IgG Fc (Example 5)
Procedure: as §2

[12] = target: T5, human TIGIT on CHO-K1 cells; experiment: flow cytometry blocking assay: biotinylated hPVR-mIg on human TIGIT CHO-K1 cells, PE streptavidin (Examples 4 and 6)
Procedure: as §3

[13] = target: T5, human TIGIT on CHO-K1 cells; experiment: flow cytometry competition assay: PVR (CD155) signal on human TIGIT CHO-K1 cells against titrated antibody (Example 3 names human PVR-human Fc, m15, with PE anti-human Fc)
Source text: Cells were then washed with FACS buffer and then re-suspended in 7-amino-actinomycin D (7AAD) solution before analysis with iQue intellicyt system.

[14] = target: T1, human PD-1 on CHO-K1 cells; experiment: flow cytometry blocking assay: FITC human PD-L1-Fc on human PD-1 CHO-K1 cells (Example 11; the legend paragraph 42 calls it binding to hu PD-L1)
Procedure: as §1

[15] = target: T1, human PD-1 on CHO-K1 cells; experiment: flow cytometry blocking assay: FITC human PD-L1-Fc on human PD-1 CHO-K1 cells (Example 11); axis: % of PD-L1 Binding Signal; first of two legend entries printed PD-05 Human
Procedure: as §1

[16] = target: T6, cyno PD-1 on CHO-K1 cells (cyno); experiment: flow cytometry blocking assay of Example 11, PD-L1 on cyno PD-1 CHO-K1 cells; cyno taken from the legend paragraph 42 ('cyno-hu'), while Example 11 speaks of human PD-1 and human PD-L1 for this figure
T6 construct: whole, on cells; also called cyno hu PD-1; Cyno PD-1 transfected CHO-K1 cells
Procedure: as §1

T1 sequence (Q15116 25-288): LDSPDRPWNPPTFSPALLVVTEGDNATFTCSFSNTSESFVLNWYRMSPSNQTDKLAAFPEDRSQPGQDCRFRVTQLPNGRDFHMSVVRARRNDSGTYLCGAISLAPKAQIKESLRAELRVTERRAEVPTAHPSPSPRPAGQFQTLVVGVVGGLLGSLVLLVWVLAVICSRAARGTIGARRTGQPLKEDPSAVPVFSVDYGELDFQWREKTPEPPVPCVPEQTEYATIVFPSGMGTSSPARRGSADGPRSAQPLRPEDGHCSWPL
T2 sequence (Q15116 25-170 limits assumed): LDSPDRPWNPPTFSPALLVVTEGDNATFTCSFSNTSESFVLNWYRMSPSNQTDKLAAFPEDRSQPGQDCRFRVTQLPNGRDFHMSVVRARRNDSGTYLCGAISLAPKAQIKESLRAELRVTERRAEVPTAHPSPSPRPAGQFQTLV
T4 sequence (A0A7N9I9V4 entry or part of it): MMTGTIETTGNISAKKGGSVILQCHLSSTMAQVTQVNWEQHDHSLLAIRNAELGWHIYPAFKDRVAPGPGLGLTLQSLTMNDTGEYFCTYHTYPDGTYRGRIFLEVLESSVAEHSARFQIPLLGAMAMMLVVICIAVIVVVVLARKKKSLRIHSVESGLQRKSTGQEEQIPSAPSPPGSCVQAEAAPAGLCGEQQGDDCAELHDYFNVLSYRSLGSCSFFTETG

B1: PD-01 mab (antibody, V domains shown)
VH: EVQLVESGGGLVQPGGSLRLSCAASGFTFSNFLMSWVRQAPGKGLEWVSTISGGGRDTYYVDSVKGRFTISRDNSKNTLYLQMNSLRAEDTAVYYCAKRTTYSMDYWGQGTSVTVSS
VL: DIQMTQSPSSVSASVGDRVTITCLASQTIGTWLAWYQQKPGKAPKLLIYAATSLADGVPSRFSGSGSGTDFTLTISSLQPEDFATYYCQQFYSIPWTFGGGTKLEIK
notes: also called anti-PD-1 (PD-01)
- IC50 [1]: 2.28 nM
- IC50 [2]: 1.5 nM
- IC50 (read off the curve) [3]: ~1 nM
- Kd [4]: 2.2 nM
- koff [4]: 0.000272 s⁻¹
- kon [4]: 126000 M⁻¹ s⁻¹

B4: PD-05 (antibody, V domains shown)
VH: QVQLVQSGAEVKKPGASVKVSCKASGYTFTTYYIYWVRQAPGQGLEWMGGINPGNGGTNFNEKFKIRVTMTRDTSISTAYMELSSLRSEDTAVYYCARRYHGYDGGLDYWGQGTLVTVSS
VL: DIVLTQSPASLAVSPGQRATITCRASKSVSTSGFSYIHWYQQKPGQPPKLLIYLASNLESGVPARFSGSGSGTDFTLTINPVEANDTANYYCQHTWELPNTFGGGTKVEIK
notes: also called anti-PD-1 mab PD-05
- IC50 [14]: 0.56 nM
- IC50 [15]: 0.56 nM
- IC50 [16]: 1.6 nM

Results, then the binder that gave them:

- Kd [5]: 5.44 nM
- koff [5]: 0.00376 s⁻¹
- kon [5]: 690000 M⁻¹ s⁻¹
- EC50 (read off the curve) [6]: ~1 nM
- EC50 (read off the curve) [7]: ~0.5 nM
- IC50 [8]: 0.4 to 1.67 nM
- IC50 (read off the curve) [9]: ~1 nM
- IC50 (read off the curve) [10]: ~1 nM
- EC50 [11]: 0.4 nM
- IC50 [12]: 1.2 nM
B2: T-08 (antibody, V domains shown)
VH: QVQLVQSGSELKKPGASVKVSCKASGYTFTNYGMNWVRQAPGQGLEWMGWINTYTGEPTYADDFKGRFVFSLDTSVSTAYLQISSLKAEDTAVYYCARAPPYGYDVRFAYWGQGTLVTVSS
VL: DVVMTQSPLSLPVTLGQPASISCRSSQSIVHSNGNTYLEWFQQRPGQSPRVLIYKVSDRFSGVPDRFSGSGSGTDFTLKISRVEAEDVGVYYCFQGSHVPWTFGRGTKLEIK
notes: Anti-human TIGIT monoclonal antibody from mouse hybridoma; also called anti-hu TIGIT mab T-08; anti-TIGIT (T-08)

- Kd [5]: 0.67 nM
- koff [5]: 0.000538 s⁻¹
- kon [5]: 809000 M⁻¹ s⁻¹
- IC50 [8]: 0.12 to 0.31 nM
- EC50 [11]: 0.23 nM
- IC50 (read off the curve) [12]: ~0.4 nM
- IC50 (read off the curve) [13]: ~0.3 nM
B3: T-04 (antibody, V domains shown)
VH: EVQLVQSGAEVKKPGATVKISCKVSGYTFTDHTIHWVQQAPGKGLEWMGYIYPRDGSSKYNVKFKGRVTITADTSTDTAYMELSSLRSEDTAVYYCATGMLRWFAYWGQGTLVTVSS
VL: DIQMTQSPSSLSASVGDRVTITCKASQDVFTAVAWYQQKPGKAPKLLIYSASYRYTGVPSRFSGSGSGTDFTFTISSLQPEDIATYYCQQHYSIPLTFGAGTKLEIK
notes: Anti-human TIGIT monoclonal antibody from mouse hybridoma; also called anti-hu TIGIT mab T-04
